We go through 2 molecules from paper PMC12635394, “UBE2O-mediated ubiquitylation directs cytoplasmic CTNNA1 to promote cell-to-ECM adhesions” (EMBO Reports, 2025).

The target in assay [1] is T1, Flag-UBE2O-TwinStrep (purified full-length human UBE2O, wild type) (human, UniProt Q9C0C9 1-1292).
T1 construct: UBE2O, human, full-length WT in N-terminal Flag-tagged and C-terminal TwinStrep-tagged pLV vector; also called Flag-UBE2O-TS; Flag-UBE2O-WT-TwinStrep; source: Expi293F, transfected, purified (Strep-Tactin XT, Superdex 200); not shown: Flag, N-terminal, kept; TwinStrep, C-terminal, kept
T1 sequence (looked up): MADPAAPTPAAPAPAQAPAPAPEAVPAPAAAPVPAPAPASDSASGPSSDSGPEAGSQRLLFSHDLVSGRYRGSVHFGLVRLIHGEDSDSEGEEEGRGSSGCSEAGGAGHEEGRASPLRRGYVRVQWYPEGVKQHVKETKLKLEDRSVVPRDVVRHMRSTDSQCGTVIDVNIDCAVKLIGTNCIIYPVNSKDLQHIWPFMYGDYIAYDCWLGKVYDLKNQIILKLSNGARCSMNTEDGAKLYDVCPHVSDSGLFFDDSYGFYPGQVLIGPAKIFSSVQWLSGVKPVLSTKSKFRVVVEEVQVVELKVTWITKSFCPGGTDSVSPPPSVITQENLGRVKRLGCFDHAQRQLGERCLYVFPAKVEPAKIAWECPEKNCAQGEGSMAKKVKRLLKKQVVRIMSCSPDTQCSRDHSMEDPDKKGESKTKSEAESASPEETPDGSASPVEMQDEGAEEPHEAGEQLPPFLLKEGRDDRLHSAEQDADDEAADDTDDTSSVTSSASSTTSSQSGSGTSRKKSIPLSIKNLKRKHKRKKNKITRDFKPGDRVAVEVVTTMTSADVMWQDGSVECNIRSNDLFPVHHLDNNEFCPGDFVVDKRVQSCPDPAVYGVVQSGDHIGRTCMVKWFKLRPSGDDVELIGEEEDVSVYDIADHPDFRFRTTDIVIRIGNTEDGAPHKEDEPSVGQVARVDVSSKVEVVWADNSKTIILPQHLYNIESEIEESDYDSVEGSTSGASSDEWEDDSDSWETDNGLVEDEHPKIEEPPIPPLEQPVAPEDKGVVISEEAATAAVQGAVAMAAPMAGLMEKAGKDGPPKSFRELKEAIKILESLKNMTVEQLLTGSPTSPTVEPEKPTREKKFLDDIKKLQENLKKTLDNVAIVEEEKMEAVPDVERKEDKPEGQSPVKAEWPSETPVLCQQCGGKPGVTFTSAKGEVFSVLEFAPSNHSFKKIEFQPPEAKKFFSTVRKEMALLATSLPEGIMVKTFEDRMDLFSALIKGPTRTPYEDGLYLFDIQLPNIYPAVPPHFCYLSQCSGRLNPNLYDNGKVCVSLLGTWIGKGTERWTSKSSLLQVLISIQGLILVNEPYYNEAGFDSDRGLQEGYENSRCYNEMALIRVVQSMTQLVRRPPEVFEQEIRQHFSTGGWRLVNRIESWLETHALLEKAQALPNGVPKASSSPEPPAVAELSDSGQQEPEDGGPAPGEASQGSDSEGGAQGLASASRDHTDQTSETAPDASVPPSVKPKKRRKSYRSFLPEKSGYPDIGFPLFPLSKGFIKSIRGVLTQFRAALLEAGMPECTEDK
As to the kind of experiment: pull-down; 0.1 μM purified Flag-UBE2O-TS mixed with 0.1 μM purified CTNNA1-Myc in lysis buffer, captured on anti-c-Myc magnetic beads, 4 °C, 1.5 h, immunoblot. The note with it: both partners purified.

The target of assay [2] is T1, Flag-UBE2O-TwinStrep (purified …). As to the kind of experiment: pull-down; 0.1 μM CTNNA1-V5 pre-incubated overnight at 4 °C with 0, 25 or 50 nM His-GST-β-catenin, captured on BSA-blocked V5-Trap beads, washed, then 0.1 μM Flag-UBE2O-TS for 1.5 h at 4 °C, immunoblot. Particulars: both partners purified.

B1: CTNNA1-Myc (purified mouse CTNNA1 with C-terminal Myc tag) (natural protein, UniProt P26231 1-906, looked up)
chain: MTAVHAGNINFKWDPKSLEIRTLAVERLLEPLVTQVTTLVNTNSKGPSNKKRGRSKKAHVLAASVEQATENFLEKGDKIAKESQFLKEELVVAVEDVRKQGDLMKSAAGEFADDPCSSVKRGNMVRAARALLSAVTRLLILADMADVYKLLVQLKVVEDGILKLRNAGNEQDLGIQYKALKPEVDKLNIMAAKRQQELKDVGNRDQMAAARGILQKNVPILYTASQACLQHPDVAAYKANRDLIYKQLQQAVTGISNAAQATASDDAAQHQGGSGGELAYALNNFDKQIIVDPLSFSEERFRPSLEERLESIISGAALMADSSCTRDDRRERIVAECNAVRQALQDLLSEYMGNAGRKERSDALNSAIDKMTKKTRDLRRQLRKAVMDHVSDSFLETNVPLLVLIEAAKNGNEKEVKEYAQVFREHANKLIEVANLACSISNNEEGVKLVRMSASQLEALCPQVINAALALAAKPQSKLAQENMDLFKEQWEKQVRVLTDAVDDITSIDDFLAVSENHILEDVNKCVIALQEKDVDGLDRTAGAIRGRAARVIHVVTSEMDNYEPGVYTEKVLEATKLLSNTVMPRFTEQVEAAVEALSSDPAQPMDENEFIDASRLVYDGIRDIRKAVLMIRTPEELDDSDFETEDFDVRSRTSVQTEDDQLIAGQSARAIMAQLPQEQKAKIAEQVASFQEEKSKLDAEVSKWDDSGNDIIVLAKQMCMIMMEMTDFTRGKGPLKNTSDVISAAKKIAEAGSRMDKLGRTIADHCPDSACKQDLLAYLQRIALYCHQLNICSKVKAEVQNLGGELVVSGVDSAMSLIQAAKNLMNAVVQTVKASYVASTKYQKSQGMASLNLPAVSWKMKAPEKKPLVKREKQDETQTKIKRASQKKHVNPVQALSEFKAMDSI
notes: αE-catenin (CTNNA1), mouse; full-length Ctnna1 in C-terminal Myc-tagged pGEX-6P-1; also called mCTNNA1-Myc; pGEX-6P-1-CTNNA1-Myc; source: E. coli BL21 (DE3), purified (glutathione resin, GST removed with PreScission protease); not shown: Myc, C-terminal, kept
As to B1, in assay [1], the binding result was “binds”.

B2: CTNNA1-V5 (purified mouse CTNNA1 with C-terminal V5 tag) (natural protein, UniProt P26231 1-906, looked up)
chain: B1 chain
notes: αE-catenin (CTNNA1), mouse; full-length Ctnna1 in C-terminal V5-tagged pGEX-6P-1; As the unmodified 'CTNNA1' bait it went through the ubiquitylation reaction without ATP before capture on V5-Trap; also called mCTNNA1-V5; CTNNA1 bait; source: E. coli BL21 (DE3), purified (glutathione resin, GST removed with PreScission protease); not shown: V5, C-terminal, kept
As for B2, the binding result in assay [2] is “binds”.
